Assay results published in article doi:10.1101/2020.09.30.318261 (bioRxiv, 2020).

Experiments:
Experiment in all cases: ELISA
[1] = target: SARS-CoV spike S1B domain (receptor binding domain) (SARS-CoV Urbani, UniProt P59594)
[2] = target: WIV16 spike receptor binding domain (S1B domain) (SARS-like coronavirus WIV16, strain)
[3] = target: SARS-CoV-2 spike S1B domain (receptor binding domain) (SARS-CoV-2 Wuhan-Hu-1, UniProt P0DTC2)

Measured: binding result

B1: human monoclonal antibody 47D11 (antibody, V domains shown)
VH: QVQLQESGPGLVKPSETLSLTCSVSGGSISSHYWSWIRQPPGKGLEWIGYIYYSGSTNHNPSLKSRVTISVDTSKNQFSLKLSSVTAADTAVYYCARGVLLWFGEPIFEIWGQGTMVTVSS
VL: EIVMTQSPATLSVSPGERATLSCRASQSVSSSLAWYQQKPGQAPRLLIYGASTRAPGIPARFSGSGSGTEFTLTISSLQSEDFAVYYCQQYNNWPLTFGGGTKVEI
binds: [1] | [2] | [3]
